# Measured values from article PMC6294567, “The C-terminal D/E-rich domain of MBD3 is a putative Z-DNA mimic that competes for Zα DNA-binding activity” (Nucleic Acids Research, 2018).
# “And” between values parts separate entries of the source, which are not always exact repeats. Equal values may be shown once. Primed or numbered codes have the meaning given here. Where no end group is shown, it is not given here. FITC′ = fluorescein isothiocyanate label
# T1: Zα and 6-FAM-d(CG)6 duplex (Homo sapiens, UniProt P55265)
# T1 construct: Zα of human ADAR1; residues 133–209; His6 (pMCSG7, followed by a TEV site) (N, cleaved yes); made in house; host or cells: E. coli BL21(DE3)
# T1 sequence (P55265 133-209): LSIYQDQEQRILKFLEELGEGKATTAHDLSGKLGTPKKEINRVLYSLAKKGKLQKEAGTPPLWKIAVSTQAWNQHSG
# T2: MBD3 (full-length human MBD3; residue 1–291), tag-free (human), O95983
# T2 chain: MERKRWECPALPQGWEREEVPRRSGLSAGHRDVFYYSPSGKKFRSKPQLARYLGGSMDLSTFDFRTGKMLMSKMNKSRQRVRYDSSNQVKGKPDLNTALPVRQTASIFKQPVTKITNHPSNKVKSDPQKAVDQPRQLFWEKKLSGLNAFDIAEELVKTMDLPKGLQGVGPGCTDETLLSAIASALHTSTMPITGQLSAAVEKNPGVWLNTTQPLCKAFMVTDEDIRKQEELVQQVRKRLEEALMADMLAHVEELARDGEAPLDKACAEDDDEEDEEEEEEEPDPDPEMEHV
# T3: Zα, tag-free (Z-DNA binding domain of human ADAR1, residues 133-209) (human, UniProt P55265 133-209)
# T3 construct: Zα domain of human ADAR1, residues 133-209; from pMCSG7-Zα; source: E. coli BL21(DE3), purified (Ni-NTA, TEV cleavage, reverse Ni-NTA, gel filtration); not shown: His6, N-terminal, cleaved
# T3 sequence (looked up): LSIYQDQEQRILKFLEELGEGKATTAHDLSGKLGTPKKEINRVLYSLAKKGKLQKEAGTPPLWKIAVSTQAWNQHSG
# T4: Sso7d (UniProt P39476 1-64)
# T4 sequence (looked up): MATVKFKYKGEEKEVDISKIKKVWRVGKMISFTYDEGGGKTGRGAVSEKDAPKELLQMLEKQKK
# T5: MBD domain of MBD3 (residues 1–72), tag-free (human, UniProt O95983-1 1-72)
# T5 chain: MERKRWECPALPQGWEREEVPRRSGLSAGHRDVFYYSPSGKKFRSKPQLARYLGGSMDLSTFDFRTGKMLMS
# T6: Zα (Homo sapiens, UniProt P55265)
# T6 construct: Zα of human ADAR1; residues 133–209; His6 (pMCSG7, followed by a TEV site) (N, cleaved yes); made in house; host or cells: E. coli BL21(DE3)
# T6 sequence (P55265 133-209): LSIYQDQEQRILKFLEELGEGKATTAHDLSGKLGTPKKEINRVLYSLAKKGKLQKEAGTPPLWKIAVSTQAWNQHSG
# T7: Zα, tag-free (Z-DNA binding domain of human ADAR1, residues 133-209) (human), P55265
# T7 chain: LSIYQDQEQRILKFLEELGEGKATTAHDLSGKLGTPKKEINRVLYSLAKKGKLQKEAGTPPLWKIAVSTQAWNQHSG
# Columns and labels:
# [1] = target: T1, Zα and 6-FAM-d(CG)6 duplex; assay: FP competition: displacement of Zα binding to 6-FAM-d(CG)6
# Protocol: FP experiments were performed in 384-well black plates (3575; Corning) and automated using a Beckman Coulter BioMek 3000 liquid handling system. The final reaction volume was 30 μl in a buffer containing 20 mM HEPES–NaOH pH 7.5, 50 mM NaCl, 1 mM DTT. Samples were measured at an excitation wavelength of 485 nm and an emission wavelength of 535 nm in a Paradigm Multi-Mode Microplate Detection Platform (Molecular Device). The FP values in millipolarization (mP) units were determined by measuring the parallel and perpendicular fluorescence intensity (I) and were calculated via the formula: FP value (mP) = 1000 × (Iparallel − Iperpendicular)/(Iparallel + Iperpendicular). The data were analyzed using GraphPad Prism 5 (GraphPad Software) and the dissociation constant Kd and the IC50 values were determined by non-linear regression using a one-site total binding model and a dose-response (variable slope) model, respectively. Error bars represent standard deviation from triplicate experiments.
# The error bars in each plot represent the mean ± standard deviation of triplicate experiments. mP, millipolarization.
# [2] = target: Zα, tag-free (Z-DNA binding domain of human ADAR1, residues 133-209) (human) (UniProt P55265); assay: fluorescence polarisation; competition: unlabelled peptide added to the pre-incubated mixture of Zα and 6-FAM-d(CG)6 duplex; 20 mM HEPES-NaOH pH 7.5, 50 mM NaCl, 1 mM DTT; dose-response (variable slope) model
# [3] = target: MBDDE (MBD domain of MBD3 connected to the acidic tail; residues 263–291), tag-free (human) (UniProt O95983); assay: SEC; Zα (400 μM) and MBDDE (100 μM), or Zα and MBD under the same conditions, 4:1 molar ratio; 20 mM Tris-HCl pH 7.5, 50 mM NaCl, 1 mM TCEP; Superdex 75 10/300 GL; fractions on SDS-PAGE
# [4] = target: T2, MBD3 (full-length human MBD3; residue …); assay: SEC; purified MBD3 alone on Superdex 200 increase 10/300 GL against protein standards; details: remark: other sources report otherwise
# [5] = tested on: endogenous ADAR1; assay: FLAG immunoprecipitation of endogenous ADAR1 in 293F cells; assay type: cell-based, human; details: anti-ADAR1 western blot
# Protocol: For expressing FLAG-MBD3 and its mutants in 293F cells (Freestyle™ 293 Expression System; Invitrogen), the DNA fragments were PCR amplified and inserted into HindIII site of pFLAG-CMV-2 vector (Sigma-Aldrich). The plasmids were purified by EasyPrep EndoFree Maxi Plasmid Extraction Kit (BIOTOOLS Co., Ltd, Taiwan) and transiently transfected into 293F cells using 293fectin (Invitrogen) according to the manufacturer's guidelines.
# After 48 h posttransfection, the cells were washed with cold PBS and lysed with lysis buffer [50 mM Tris–HCl pH 7.5, 0.3% NP-40, 100 mM potassium acetate, 10% glycerol, 50 U/ml Benzonaes (Novagen) and EDTA-free protease inhibitor cocktail tablet (Roche)]. The lysates were incubated with anti-FLAG M2 Affinity Gel (A2220; Sigma-Aldrich) on a rotation at 4°C overnight. […] The immunoprecipitates were eluted by FLAG peptide (F4799; Sigma-Aldrich) and resolved by a NuPAGE 12% Bis–Tris gel (Invotrogen). Specific antibodies used for western blotting were Rabbit anti-FLAG (1:5000; F7425; Sigma-Aldrich) and rabbit anti-ADAR1 D7E2M (1:1000; 14175; Cell Signaling Technology).
# [6] = target: T3, Zα, tag-free (Z-DNA binding domain of …); assay: fluorescence polarisation; FITC-labelled D/E-rich peptide against titrated protein; 20 mM HEPES-NaOH pH 7.5, 50 mM NaCl, 1 mM DTT; one-site total binding model; details: both partners purified
# [7] = target: T4, Sso7d; assay: as above; details: both partners purified
# [8] = target: T5, MBD domain of MBD3 (residues 1–72), …; assay: FP
# [9] = tested on: d(CG)6 duplex; assay: Circular dichroism of d(CG)6 DNA conformation
# Protocol: CD spectra were measured at 24°C on a J-815 Spectrometer (JASCO) using a 1 mm path length quartz cell. Prepare 7.5 μM DNA duplex in a buffer consisting of 5 mM HEPES–NaOH pH 7.5, 25 mM NaCl and 1 mM DTT, and in the absence or presence of indicated concentration of proteins. Spectra were recorded between 235 and 305 nm wavelength with a data pitch of 1 nm, bandwidth of 1 nm and with two accumulations at a scanning speed of 10 nm/min.
# Figure 6. Zα can compete with the MBD domain for binding to d(CG)6, but not vice versa. (A) CD spectra of the d(CG)6 duplex in the presence of Zα. CD spectra of (B) the d(CG)6 and (C) the d(C^mG)6 duplex, respectively, in the presence of the MBD domain. (D) Monitoring of the change in CD spectra with the addition of increased amounts of Zα to the pre-incubated mixture of the MBD domain and d(CG)6. (E) Monitoring of the change in CD spectra with the addition of increased amount of the MBD domain to the pre-incubated mixture of Zα and d(CG)6. Spectra are expressed in absolute values of ellipticity in millidegrees (mdeg).
# [10] = target: T6, Zα; assay: SEC / SDS-PAGE complex formation with Zα; assay type: binding
# Protocol: Equimolar amounts (0.1 mM) of Zα and DE-rich peptide were incubated on ice for 1 h in a buffer containing 20 mM HEPES–NaOH pH 7.5, 50 mM NaCl, 1 mM DTT. The mixture was then loaded on a Superdex 30 16/600 column (GE Healthcare) equilibrated in the same buffer. The fractions from the peaks corresponding to Zα alone and the complex of Zα and DE-rich peptide were collected and used for chemical cross-linking.
# To analyze complex formation of Zα and other proteins (MBD3, MBD or MBDDE), the mixtures were incubated on ice for 1 h in a buffer containing 20 mM Tris–HCl pH 7.5, 50 mM NaCl, 1 mM TCEP. The mixture was then loaded on a Superdex 75 or Superdex 200 increase 10/300 column (GE Healthcare).
# [11] = target: T7, Zα, tag-free (Z-DNA binding domain of …); assay: fluorescence polarisation; competition: unlabelled peptide added to the pre-incubated mixture of Zα and 6-FAM-d(CG)6 duplex; 20 mM HEPES-NaOH pH 7.5, 50 mM NaCl, 1 mM DTT; dose-response (variable slope) model
# [12] = target: the molecule itself; assay: SEC; purified MBDDE or MBD alone on Superdex 75 10/300 GL against protein standards
# [13] = Stability of E. coli-expressed protein; assay type: physicochemical; details: recombinant E. coli-expressed protein
molecule,measurement,setting,value
poly-L-glutamic acid [polyE],competition with d(CG)6 for binding to Zα (in words),[1]; 6-FAM-d(CG)6,"could compete with Zα binding to d(CG)6, although the efficiency was lower than full-length D/E-rich peptide"
same,concentration at 50% displacement (IC50),"[1]; pre-incubated Zα and 6-FAM-d(CG)6, triplicate, 95% CI 3.4–8.9 μg/ml",5.5 µg/mL
poly-L-glutamic acid (1500–5500 Da; Sigma) peptide,IC50,[2],1000 to 3700 nM
"Zα, tag-free (Z-DNA binding domain of human ADAR1, residues 133-209) (from UniProt P55265 133-209) (domain or fragment)",stoichiometry N,[3],1 Zα per MBDDE and 2 Zα per MBDDE
"MBD3 (full-length human MBD3; residue 1–291), tag-free, O95983-1 1-291 (natural protein) MERKRWECPALPQGWEREEVPRRSGLSAGHRDVFYYSPSGKKFRSKPQLARYLGGSMDLSTFDFRTGKMLMSKMNKSRQRVRYDSSNQVKGKPDLNTALPVRQTASIFKQPVTKITNHPSNKVKSDPQKAVDQPRQLFWEKKLSGLNAFDIAEELVKTMDLPKGLQGVGPGCTDETLLSAIASALHTSTMPITGQLSAAVEKNPGVWLNTTQPLCKAFMVTDEDIRKQEELVQQVRKRLEEALMADMLAHVEELARDGEAPLDKACAEDDDEEDEEEEEEEPDPDPEMEHV",stoichiometry N,[4],2
"FLAG-MBD3: FLAG-tagged full-length MBD3 transiently expressed in 293F cells (protein, left off: FLAG, end not stated, kept, FLAG-tagged full-length MBD3 transiently expressed in 293F cells) MERKRWECPALPQGWEREEVPRRSGLSAGHRDVFYYSPSGKKFRSKPQLARYLGGSMDLSTFDFRTGKMLMSKMNKSRQRVRYDSSNQVKGKPDLNTALPVRQTASIFKQPVTKITNHPSNKVKSDPQKAVDQPRQLFWEKKLSGLNAFDIAEELVKTMDLPKGLQGVGPGCTDETLLSAIASALHTSTMPITGQLSAAVEKNPGVWLNTTQPLCKAFMVTDEDIRKQEELVQQVRKRLEEALMADMLAHVEELARDGEAPLDKACAEDDDEEDEEEEEEEPDPDPEMEHV",co-immunoprecipitation of ADAR1-p110 (lacking Zα),"[5]; 293F cells, FLAG-IP",also pulled down
same,co-immunoprecipitation of endogenous ADAR1,"[5]; transient expression in 293F cells, anti-FLAG resin",endogenous ADAR1 was indeed pulled down
"{FITC′}-DKACAEDDDEEDEEEEEEEPDPDP [D/E-rich peptide of MBD3, FITC-labelled]",Kd,[6],29.1 ± 1.7 nM
same,Kd,[7],1100 ± 200 nM
same,Kd,[8],21.2 nM
"MBD domain: MBD domain of MBD3; residues 1–72 (protein, left off: His6, N-terminal, cleaved) MERKRWECPALPQGWEREEVPRRSGLSAGHRDVFYYSPSGKKFRSKPQLARYLGGSMDLSTFDFRTGKMLMS",DNA conformation after binding,"[9]; CD 235-305 nm, 24°C, 7.5 μM DNA duplex, 5 mM HEPES–NaOH pH 7.5, 25 mM NaCl, 1 mM DTT",kept the duplex DNA in B-form
same,competition for binding to d(CG)6 (MBD domain added to pre-incubated Zα and d(CG)6),"[9]; CD, increasing MBD domain",could not compete with the binding of Zα and Z-DNA
same,complex formation with Zα on SEC,"[10]; Zα : MBD 4:1 molar ratio, Superdex 75 10/300 GL",no complex formation was detected
"DKACAEDDDEEDEEEEEEEPDPDP (modifications not checked) [D/E-rich peptide of MBD3, unlabelled (full-length D/E-rich peptide)]",IC50,[11],164 nM
"MBDDE (MBD domain of MBD3 connected to the acidic tail; residues 263–291), tag-free (domain or fragment, human, UniProt O95983-1 1-72, looked up, MBD domain of human MBD3; its limits (1-72) are those printed for the MBD3MBD construct; No linker between the two stretches is mentioned; The protein was partly degraded from the C-terminal disordered region by mass spectrometry; source: E. coli BL21(DE3), purified (Ni-NTA, TEV cleavage, reverse Ni-NTA, gel filtration); not shown: His6, N-terminal, cleaved) MERKRWECPALPQGWEREEVPRRSGLSAGHRDVFYYSPSGKKFRSKPQLARYLGGSMDLSTFDFRTGKMLMSDKACAEDDDEEDEEEEEEEPDPDPEMEHV",stoichiometry N,[12],2
"MBDDE: MBD domain of MBD3 connected to the acidic tail; residues 263–291 (protein, left off: His6, N-terminal, cleaved) MERKRWECPALPQGWEREEVPRRSGLSAGHRDVFYYSPSGKKFRSKPQLARYLGGSMDLSTFDFRTGKMLMSDKACAEDDDEEDEEEEEEEPDPDPEMEHV",efficiency of interaction with Zα relative to D/E peptide,"[10]; SEC, Zα and MBDDE",less efficiently than with D/E peptide
same,complex formation with Zα on SEC,"[10]; Zα 100 μM : protein 25 μM (4:1), ice 1 h, 20 mM Tris–HCl pH 7.5, 50 mM NaCl, 1 mM TCEP",could not detect stable complex formation of Zα and MBDDE
same,complex formation with Zα on SEC,"[10]; Zα 400 μM : MBDDE 100 μM (4:1), ice 1 h, Superdex 75, pH 7.5",a small amount of MBDDE and Zα complex was detected
same,protein stability (in words),[13],more sensitive to protease than the MBD domain
